Drawing on patent US6709838 (Genentech, dated 2004), this text covers Kd for 2 molecules.

The target in the test is T1, human Ptch-2 (SEQ ID NO:2), overexpressed on transfected human 293 embryonic kidney cells (human, UniProt Q9Y6C5 1-1203).
T1 construct: also called Patched-2; patched-2
T1 sequence: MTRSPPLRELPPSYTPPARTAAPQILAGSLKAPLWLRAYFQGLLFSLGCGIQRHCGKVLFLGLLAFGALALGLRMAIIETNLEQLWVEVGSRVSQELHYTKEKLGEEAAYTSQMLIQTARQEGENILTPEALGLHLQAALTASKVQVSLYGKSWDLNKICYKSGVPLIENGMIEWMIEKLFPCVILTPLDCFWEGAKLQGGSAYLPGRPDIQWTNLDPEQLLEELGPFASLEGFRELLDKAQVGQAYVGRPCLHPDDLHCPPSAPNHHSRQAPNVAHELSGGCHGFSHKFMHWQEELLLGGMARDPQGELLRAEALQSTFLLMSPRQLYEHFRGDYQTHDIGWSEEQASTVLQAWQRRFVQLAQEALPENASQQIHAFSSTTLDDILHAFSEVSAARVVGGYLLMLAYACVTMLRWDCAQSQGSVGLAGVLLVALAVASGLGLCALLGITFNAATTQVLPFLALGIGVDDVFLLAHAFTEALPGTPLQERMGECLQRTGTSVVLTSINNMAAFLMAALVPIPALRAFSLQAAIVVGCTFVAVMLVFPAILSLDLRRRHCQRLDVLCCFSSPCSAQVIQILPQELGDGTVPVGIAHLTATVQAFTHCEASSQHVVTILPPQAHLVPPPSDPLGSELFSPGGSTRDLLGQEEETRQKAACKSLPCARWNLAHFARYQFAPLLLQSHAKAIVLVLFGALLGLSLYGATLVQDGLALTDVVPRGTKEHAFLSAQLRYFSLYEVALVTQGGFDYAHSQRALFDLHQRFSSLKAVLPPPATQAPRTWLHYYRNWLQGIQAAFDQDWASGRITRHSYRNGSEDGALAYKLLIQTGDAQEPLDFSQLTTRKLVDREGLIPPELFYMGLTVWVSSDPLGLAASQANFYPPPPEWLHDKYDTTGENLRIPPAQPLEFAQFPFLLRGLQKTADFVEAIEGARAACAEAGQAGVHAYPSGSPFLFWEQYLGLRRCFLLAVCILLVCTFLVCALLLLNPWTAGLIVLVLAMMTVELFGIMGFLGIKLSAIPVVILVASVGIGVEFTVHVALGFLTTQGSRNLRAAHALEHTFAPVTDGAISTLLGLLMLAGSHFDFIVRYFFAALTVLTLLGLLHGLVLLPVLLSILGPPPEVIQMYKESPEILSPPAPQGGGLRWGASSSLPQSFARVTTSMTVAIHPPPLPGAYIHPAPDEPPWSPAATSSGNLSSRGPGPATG
The test is described as follows: Scatchard analysis of 125I-Shh displacement curves, 293 cells expressing Ptch-2.

B1: Dhh (SEQ ID NO:13) (ligand)
chain: not shown
notes: also called Desert Hh; Desert hedgehog
Molecule B1 had a Kd of 0.6 nM.

B2: Ihh (SEQ ID NO:29) (ligand)
chain: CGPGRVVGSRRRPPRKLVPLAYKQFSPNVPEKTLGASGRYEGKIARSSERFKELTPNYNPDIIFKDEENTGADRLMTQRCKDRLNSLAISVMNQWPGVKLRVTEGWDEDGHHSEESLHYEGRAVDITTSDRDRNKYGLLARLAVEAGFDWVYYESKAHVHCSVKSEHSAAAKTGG
notes: also called Indian Hh
As to B2, the dissociation constant (Kd) was found to be 0.4 nM. This Kd and that of the molecule before are within 1.5-fold of each other.

The Kd is the concentration at which binding is half-saturated. Lower therefore signals a tighter complex.
